# System: Escherichia coli TOP10
# Experiment: shrunken log2 fold change of peptide-encoding DNA abundance (4.5 h post-induction vs induction); higher = less antimicrobial activity (less host growth inhibition)
# Settings: time post-induction: 4.5 h; library: site-saturation at positions 5, 18, 19, 20
# 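Also: peptides expressed intracellularly from a pBAD plasmid library in pooled LB shake-flask culture, induced with 0.3% L-arabinose, DNA abundance read by NGS, three biological replicates, DESeq2 with apeglm shrinkage.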
row,Sequence,shrunken log2 fold change
1,RRIRYRPPRLPRPRPRPCMMPRP,0.00911
2,RRIRMRPPRLPRPRPRPYWLPRP,-0.0329
3,RRIRRRPPRLPRPRPRPRSIPRP,-0.0781
4,RRIRSRPPRLPRPRPRPRYRPRP,-0.276
5,RRIRMRPPRLPRPRPRPVCCPRP,0.496
6,RRIRQRPPRLPRPRPRPLCWPRP,-0.0481
7,RRIRERPPRLPRPRPRPTAAPRP,0.456
8,RRIRGRPPRLPRPRPRPGLAPRP,1.25
9,RRIRWRPPRLPRPRPRPAACPRP,0.0948
10,RRIRNRPPRLPRPRPRPHHYPRP,-0.619
11,RRIRMRPPRLPRPRPRPHCSPRP,0.183
12,RRIRDRPPRLPRPRPRPKHYPRP,-0.491
13,RRIRKRPPRLPRPRPRPGPNPRP,0.795
14,RRIRCRPPRLPRPRPRPSHGPRP,-0.33
15,RRIRARPPRLPRPRPRPYYQPRP,-0.374
16,RRIRVRPPRLPRPRPRPPQEPRP,0.177
17,RRIRMRPPRLPRPRPRPKAGPRP,1.3
18,RRIRRRPPRLPRPRPRPYDPPRP,0.0185
19,RRIRIRPPRLPRPRPRPTDSPRP,-0.237
20,RRIRTRPPRLPRPRPRPECGPRP,0.51
21,RRIRVRPPRLPRPRPRPPSYPRP,0.00807
22,RRIRNRPPRLPRPRPRPNQRPRP,0.0166
23,RRIRKRPPRLPRPRPRPYTTPRP,-0.0326
24,RRIRHRPPRLPRPRPRPLDGPRP,-0.34
25,RRIRERPPRLPRPRPRPLGCPRP,-0.166

row,Sequence,shrunken log2 fold change
1,RRIRVRPPRLPRPRPRPKWIPRP,-0.114
2,RRIRKRPPRLPRPRPRPPSCPRP,1.71
3,RRIRLRPPRLPRPRPRPDPHPRP,-0.171
4,RRIRRRPPRLPRPRPRPWCSPRP,-0.0123
5,RRIRRRPPRLPRPRPRPGMNPRP,0.00468
6,RRIRERPPRLPRPRPRPRNQPRP,-0.312
7,RRIRKRPPRLPRPRPRPSKKPRP,0.0529
8,RRIRTRPPRLPRPRPRPCNNPRP,-0.276
9,RRIRCRPPRLPRPRPRPYMQPRP,-0.918
10,RRIRNRPPRLPRPRPRPQFFPRP,-0.0257
11,RRIRVRPPRLPRPRPRPNLRPRP,0.0738
12,RRIRGRPPRLPRPRPRPRELPRP,1.31
13,RRIRQRPPRLPRPRPRPDWAPRP,-0.012
14,RRIRTRPPRLPRPRPRPSITPRP,-0.484
15,RRIRNRPPRLPRPRPRPIPRPRP,0.0496
16,RRIRERPPRLPRPRPRPWAKPRP,-0.015
17,RRIRIRPPRLPRPRPRPWVWPRP,0.414
18,RRIRARPPRLPRPRPRPQSVPRP,-0.037
19,RRIRGRPPRLPRPRPRPCAKPRP,0.661
20,RRIRMRPPRLPRPRPRPLEGPRP,0.109
21,RRIRYRPPRLPRPRPRPETSPRP,0.014
22,RRIRNRPPRLPRPRPRPLMNPRP,-0.853
23,RRIRYRPPRLPRPRPRPGNFPRP,-0.307
24,RRIRKRPPRLPRPRPRPIKAPRP,0.211
25,RRIRDRPPRLPRPRPRPVDFPRP,0.0775

row,Sequence,shrunken log2 fold change
1,RRIRVRPPRLPRPRPRPPWPPRP,0.464
2,RRIRNRPPRLPRPRPRPVGFPRP,0.165
3,RRIRCRPPRLPRPRPRPFTVPRP,-0.456
4,RRIRIRPPRLPRPRPRPTKEPRP,0.0462
5,RRIRSRPPRLPRPRPRPDKSPRP,-0.2
6,RRIRGRPPRLPRPRPRPAGRPRP,0.692
7,RRIRYRPPRLPRPRPRPRFQPRP,-0.201
8,RRIRVRPPRLPRPRPRPPCWPRP,0.422
9,RRIRLRPPRLPRPRPRPRTMPRP,-0.0102
10,RRIRHRPPRLPRPRPRPYTSPRP,-0.00159
11,RRIRLRPPRLPRPRPRPKCWPRP,0.323
12,RRIRRRPPRLPRPRPRPFGYPRP,-0.018
13,RRIRDRPPRLPRPRPRPKRSPRP,-0.0252
14,RRIRVRPPRLPRPRPRPSRKPRP,0.00977
15,RRIRYRPPRLPRPRPRPHSSPRP,-0.207
16,RRIRCRPPRLPRPRPRPSCAPRP,-0.0944
17,RRIRWRPPRLPRPRPRPRTQPRP,0.276
18,RRIRNRPPRLPRPRPRPTGRPRP,0.0525
19,RRIRKRPPRLPRPRPRPTHLPRP,0.149
20,RRIRTRPPRLPRPRPRPMKKPRP,-0.115
21,RRIRTRPPRLPRPRPRPWDYPRP,-0.139
22,RRIRARPPRLPRPRPRPLSNPRP,0.25
23,RRIRNRPPRLPRPRPRPIHMPRP,0.0468
24,RRIRLRPPRLPRPRPRPIQYPRP,0.147
25,RRIRLRPPRLPRPRPRPWPAPRP,0.0194

row,Sequence,shrunken log2 fold change
1,RRIRDRPPRLPRPRPRPGYRPRP,0.000964
2,RRIRCRPPRLPRPRPRPICLPRP,-0.127
3,RRIRLRPPRLPRPRPRPAYCPRP,-0.088
4,RRIRRRPPRLPRPRPRPNMVPRP,-0.0449
5,RRIRYRPPRLPRPRPRPKTTPRP,-0.0197
6,RRIRQRPPRLPRPRPRPYMNPRP,-0.155
7,RRIRERPPRLPRPRPRPKKHPRP,-0.55
8,RRIRMRPPRLPRPRPRPQVLPRP,0.25
9,RRIRYRPPRLPRPRPRPCMDPRP,-0.214
10,RRIRCRPPRLPRPRPRPELMPRP,0.23
11,RRIRGRPPRLPRPRPRPRHEPRP,0.604
12,RRIRPRPPRLPRPRPRPWIDPRP,-0.35
13,RRIRGRPPRLPRPRPRPWAYPRP,-0.151
14,RRIRWRPPRLPRPRPRPYACPRP,-0.355
15,RRIRDRPPRLPRPRPRPPMTPRP,0.425
16,RRIRMRPPRLPRPRPRPNNGPRP,0.0562
17,RRIRKRPPRLPRPRPRPMFKPRP,-0.0779
18,RRIRWRPPRLPRPRPRPVQFPRP,0.0316
19,RRIRRRPPRLPRPRPRPSKNPRP,-0.00571
20,RRIRWRPPRLPRPRPRPFWAPRP,0.274
21,RRIRQRPPRLPRPRPRPDLVPRP,-0.0031
22,RRIRERPPRLPRPRPRPWAQPRP,-0.0813
23,RRIRWRPPRLPRPRPRPDMHPRP,0.199
24,RRIRPRPPRLPRPRPRPKGWPRP,1.22
25,RRIRDRPPRLPRPRPRPCVRPRP,-0.111

row,Sequence,shrunken log2 fold change
1,RRIRGRPPRLPRPRPRPITFPRP,-0.148
2,RRIRARPPRLPRPRPRPLMYPRP,-0.165
3,RRIRARPPRLPRPRPRPYKSPRP,-0.441
4,RRIRTRPPRLPRPRPRPPAIPRP,0.0134
5,RRIRRRPPRLPRPRPRPQCTPRP,-0.122
6,RRIRHRPPRLPRPRPRPVNPPRP,-0.307
7,RRIRTRPPRLPRPRPRPSIEPRP,-0.155
8,RRIRCRPPRLPRPRPRPSTQPRP,-0.495
9,RRIRRRPPRLPRPRPRPNNSPRP,-0.356
10,RRIRQRPPRLPRPRPRPVPPPRP,0.536
11,RRIRLRPPRLPRPRPRPFHWPRP,-0.000687
12,RRIRTRPPRLPRPRPRPSWMPRP,-0.466
13,RRIRTRPPRLPRPRPRPGWTPRP,0.24
14,RRIRNRPPRLPRPRPRPCFTPRP,-0.733
15,RRIRNRPPRLPRPRPRPFIEPRP,-0.412
16,RRIRGRPPRLPRPRPRPCVLPRP,0.158
17,RRIRLRPPRLPRPRPRPYSWPRP,-0.176
18,RRIRPRPPRLPRPRPRPWLRPRP,0.421
19,RRIRMRPPRLPRPRPRPFIEPRP,-0.0583
20,RRIRVRPPRLPRPRPRPSKVPRP,-0.693
21,RRIRYRPPRLPRPRPRPMGKPRP,-0.452
22,RRIRMRPPRLPRPRPRPTKDPRP,0.277
23,RRIRTRPPRLPRPRPRPTGAPRP,0.323
24,RRIRGRPPRLPRPRPRPVTQPRP,0.445
25,RRIRHRPPRLPRPRPRPSLPPRP,-0.328

# Reference: the supplement of paper PMC9112550, “Optimization of the antimicrobial peptide Bac7 by deep mutational scanning” (BMC Biology, 2022)
